Measurements from the Human Domainome abundance scans (Beltran et al. 2025).
± gives the uncertainty stated by the source.

B1: Gamma-crystallin S, residues 96 to 176; numbered along this chain, P22914 (parent)
chain: IQIFEKGDFSGQMYETTEDCPSIMEQFHMREIHSCKVLEGVWIFYELPNYRGRQYLLDKKEYRKPIDWGAASPAVQSFRRI

Variants of: B1
Test: abundance fitness (aPCA) (normalised: wild type 0, dead -1); higher = more abundant; growth selection in yeast, the domain comes from the species named
Conditions: Homo sapiens

Variant | abundance fitness
IQIFEKGDFSGQMYETTEDCPSIMEQFHMREIHSCKVLEGVWIFYELDNYRGRQYLLDKKEYRKPIDWGAASPAVQSFRRI | -0.038 ± 0.12
IQIFEKGDFSGQMYETTEDCPSEMEQFHMREIHSCKVLEGVWIFYELPNYRGRQYLLDKKEYRKPIDWGAASPAVQSFRRI | -0.945 ± 0.24
IQIFEKGDFSGQMYETTEDCPSIMEQFHMREIHSCKVLEPVWIFYELPNYRGRQYLLDKKEYRKPIDWGAASPAVQSFRRI | -0.028 ± 0.086
IQIFEKGDFIGQMYETTEDCPSIMEQFHMREIHSCKVLEGVWIFYELPNYRGRQYLLDKKEYRKPIDWGAASPAVQSFRRI | -0.059 ± 0.091
IQIFEKGDFSGQMYETTEDCPSIMEQFHMREIHSCKVLEGVWIFTELPNYRGRQYLLDKKEYRKPIDWGAASPAVQSFRRI | -0.304 ± 0.14
IQIFEKGDFSGQMYETTEDCPSIMEQFHMREIHSCKVLEGVWIFFELPNYRGRQYLLDKKEYRKPIDWGAASPAVQSFRRI | -0.04 ± 0.11
IQIFEKGDFSGQMYETTEDCPSIMEQFHMREIHSCKVLEGVWIFYELPNYRGRQYLLDCKEYRKPIDWGAASPAVQSFRRI | -0.104 ± 0.18
IQIFEKGDFSGQMYETTEDCPSIMEQFHMREIHSCKVLEGVWIFYELPNYRGRQYLLDMKEYRKPIDWGAASPAVQSFRRI | -0.136 ± 0.31
IQIFEKGDFSGQMYETTEVCPSIMEQFHMREIHSCKVLEGVWIFYELPNYRGRQYLLDKKEYRKPIDWGAASPAVQSFRRI | -0.038 ± 0.04
IQIFEKGDFSGQMYETTEKCPSIMEQFHMREIHSCKVLEGVWIFYELPNYRGRQYLLDKKEYRKPIDWGAASPAVQSFRRI | -0.114 ± 0.16
IQIFEKGDFSGQMYETTEYCPSIMEQFHMREIHSCKVLEGVWIFYELPNYRGRQYLLDKKEYRKPIDWGAASPAVQSFRRI | 0.009 ± 0.098
IQIFEKGDFSGQMYETTEECPSIMEQFHMREIHSCKVLEGVWIFYELPNYRGRQYLLDKKEYRKPIDWGAASPAVQSFRRI | -0.018 ± 0.081
IQIFEPGDFSGQMYETTEDCPSIMEQFHMREIHSCKVLEGVWIFYELPNYRGRQYLLDKKEYRKPIDWGAASPAVQSFRRI | -1.1 ± 0.21
IQIFEKGDFSGQMYETTEDCPFIMEQFHMREIHSCKVLEGVWIFYELPNYRGRQYLLDKKEYRKPIDWGAASPAVQSFRRI | -0.035 ± 0.12
IQIFEKGDFSLQMYETTEDCPSIMEQFHMREIHSCKVLEGVWIFYELPNYRGRQYLLDKKEYRKPIDWGAASPAVQSFRRI | -0.137 ± 0.041
IQIFEKGDFSIQMYETTEDCPSIMEQFHMREIHSCKVLEGVWIFYELPNYRGRQYLLDKKEYRKPIDWGAASPAVQSFRRI | -0.372 ± 0.17
IQIFEKGDFSGQMYETTEDCPSIMEQFHMREIHSCKVLEGVWIFYELPNYRGRQYLLDKKEYRKPIDWGKASPAVQSFRRI | 0.169 ± 0.37

Variant | abundance fitness
IQIFEKGDFSGQMYETTEDCPSIMEQFHMREIHSCKVLWGVWIFYELPNYRGRQYLLDKKEYRKPIDWGAASPAVQSFRRI | -0.06 ± 0.035
IQIFEKGDFSGQMYETTEDCPSIMEQFHMREIHSCKVLNGVWIFYELPNYRGRQYLLDKKEYRKPIDWGAASPAVQSFRRI | 0.079 ± 0.13
IQIFEKGDFSGQMYETTEDCPSIMEQFHMREIHSCKVLAGVWIFYELPNYRGRQYLLDKKEYRKPIDWGAASPAVQSFRRI | 0.059 ± 0.046
IQIFEKGDFSGQMYETTEDCPSIMEQFHMREIHSCKVLEGVWIFYELPNYRGRQYLLDKKEYPKPIDWGAASPAVQSFRRI | -0.096 ± 0.46
IQIFEKGDFSGQMYETTEDCPSIMEQFHMREIHSCKVLEGVWIFYELPNYRGRQYLLKKKEYRKPIDWGAASPAVQSFRRI | 0.012 ± 0.34
IQIFEKGDFSGQMYETTEDCPSIMEQFHMREIHSFKVLEGVWIFYELPNYRGRQYLLDKKEYRKPIDWGAASPAVQSFRRI | 0.133 ± 0.071
IQIFEKGSFSGQMYETTEDCPSIMEQFHMREIHSCKVLEGVWIFYELPNYRGRQYLLDKKEYRKPIDWGAASPAVQSFRRI | 0.093 ± 0.039
IQIFEKGDFSGQMYETTEDCPSIMEQFHMREIHSCKVLEGVWIFYILPNYRGRQYLLDKKEYRKPIDWGAASPAVQSFRRI | -0.777 ± 0.25
IQWFEKGDFSGQMYETTEDCPSIMEQFHMREIHSCKVLEGVWIFYELPNYRGRQYLLDKKEYRKPIDWGAASPAVQSFRRI | -0.047 ± 0.056
IQIFEKGDFSGQMYETTEDCPSIMEQFHMREIESCKVLEGVWIFYELPNYRGRQYLLDKKEYRKPIDWGAASPAVQSFRRI | 0.054 ± 0.046
IQIFEKGDFSGQMYETTEDCPSIMEQFHMREIHSCKVLEGVWWFYELPNYRGRQYLLDKKEYRKPIDWGAASPAVQSFRRI | -0.032 ± 0.07
IQIFEKGDFSGQMYETTEDCPSIMEQFHMREIHSCKVLEGVWRFYELPNYRGRQYLLDKKEYRKPIDWGAASPAVQSFRRI | 0.016 ± 0.048
IQIFEKGDFSGQMYETTEDCPSIMEQFHMREIHSCKVLEGVWIFYELPNYRGRQYLLDKKEYRKPYDWGAASPAVQSFRRI | -0.2 ± 0.36
IQIFEKGDFSGQMYETTEDCPSIMEQFHMREIHSCKKLEGVWIFYELPNYRGRQYLLDKKEYRKPIDWGAASPAVQSFRRI | 0.027 ± 0.067
IQIFEKGDFSGQMYETTEDCPSIMEQFHMREIHSCKCLEGVWIFYELPNYRGRQYLLDKKEYRKPIDWGAASPAVQSFRRI | 0.075 ± 0.058
IQIFEKGDFSGQMYETTEDCPSIMEQFHMREIHSCKVLEGVWIFYELPNYRGRQYLLDKKEYRQPIDWGAASPAVQSFRRI | -0.063 ± 0.3
IQIFEKGDFSGQMYETTEDCPSIMEQMHMREIHSCKVLEGVWIFYELPNYRGRQYLLDKKEYRKPIDWGAASPAVQSFRRI | 0.014 ± 0.068
